How the values were obtained:
[1] = biological target: ParGβCopG (UniProt Q9KJ82); assay: cross-linking
[2] = biological target: ParGβMetJ (UniProt Q9KJ82); assay: cross-linking

ParGβCopG (from UniProt Q9KJ82 1-76)
stoichiometry N [1]: 2

ParGβMetJ (from UniProt Q9KJ82 1-76)
stoichiometry N [2]: 2
